The source of these data is patent publication US20250109215A1 (Xencor, published 2025).

The chains are these.
T1: human CD123 (human, UniProt P26951 19-305, limits assumed)
T1 construct: Construct on the chip is not described; also called CD123 chip
T1 sequence (looked up): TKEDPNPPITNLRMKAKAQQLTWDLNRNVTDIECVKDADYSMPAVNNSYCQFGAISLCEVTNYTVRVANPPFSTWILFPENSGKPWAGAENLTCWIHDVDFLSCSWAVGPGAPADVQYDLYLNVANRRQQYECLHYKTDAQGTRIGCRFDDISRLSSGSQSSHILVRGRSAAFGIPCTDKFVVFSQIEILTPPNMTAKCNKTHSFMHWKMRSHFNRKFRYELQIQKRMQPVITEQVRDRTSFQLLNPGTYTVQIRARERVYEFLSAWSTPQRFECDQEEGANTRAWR

B1: 13963 7G3_H1.109_L1_Fab_His (Fab, V domains shown)
VH: QVQLQQSGAEVKKPGASVKVSCKASGYTFTDYYMKWVKQSHGKSLEWMGDIIPSNGATFYNQKFKGKATLTVDRSTSTAYMELSSLRSEDTAVYYCARSHLLRASWFAYWGQGTLVTVSS
VL: DFVMTQSPDSLAVSLGERATINCKSSQSLLNSGNQKNYLTWYQQKPGQPPKLLIYWASTRESGVPDRFTGSGSGTDFTLTISSLQAEDVAVYYCQNDYSYPYTFGGGTKLEIKR
notes: also called XENP13963
B2: 13961 7G3_H1.107_L1_Fab_His (Fab, V domains shown)
VH: B1 VH with K38R, S40A, H41P, K43Q
VL: B1 VL
notes: also called XENP13961
B3: 13965 7G3_H1.107_L1.57_Fab_His (Fab, V domains shown)
VH: B1 VH with K38R, S40A, H41P, K43Q
VL: B1 VL with S32T
notes: also called XENP13965
B4: 13735 7G3_H1.86_L1_Fab_His (Fab, V domains shown)
VH: B1 VH with Q5V, K38R, S40A, H41P, K43Q, A97T
VL: B1 VL
notes: also called XENP13735; copies: 1 + 1
B5: 13738 7G3_H1.89_L1_Fab_His (Fab, V domains shown)
VH: QVQLVQSGAEVKKPGASVKVSCKASGYTFTDYYMKWVRQAPGQSLEWIGDIIPSNGATFYNQKFQGRVTMTVDRSTSTAYMELSSLRSEDTAVYYCTRSHLLRASWFAYWGQGTLVTVSS
VL: B1 VL
notes: also called XENP13738; copies: 1 + 1
B6: 13741 7G3_H1.92_L1_Fab_His (Fab, V domains shown)
VH: B5 VH with I48M, R87T
VL: B1 VL
notes: also called XENP13741; copies: 1 + 1
B7: 13740 7G3_H1.91_L1_Fab_His (Fab, V domains shown)
VH: B5 VH with I48M, E82H
VL: B1 VL
notes: also called XENP13740; copies: 1 + 1
B8: 13855 7G3_H1_L1.57_Fab_His (Fab, V domains shown)
VH: B5 VH with I48M
VL: B1 VL with S32T
notes: also called XENP13855
B9: 13743 7G3_H1.94_L1_Fab_His (Fab, V domains shown)
VH: B5 VH with R38K, A40S, P41H, Q43K, I48M
VL: B1 VL
notes: also called XENP13743; copies: 1 + 1
B10: 13737 7G3_H1.88_L1_Fab_His (Fab, V domains shown)
VH: B5 VH with P41H, I48M
VL: B1 VL
notes: also called XENP13737; copies: 1 + 1
B11: XENP13677 (bispecific antibody)
HC 1 (Fab-Fc): QVQLVQSGAEVKKPGASVKVSCKASGYTFTSYNMHWVRQAPGQRLEWMGAIYPGNGATSYSQKFQGRVTITADTSASTAYMELSSLRSEDTAVYYCARSYYMGGDWYFDVWGAGTLVTVSSASTKGPSVFPLAPSSKSTSGGTAALGCLVKDYFPEPVTVSWNSGALTSGVHTFPAVLQSSGLYSLSSVVTVPSSSLGTQTYICNVNHKPSDTKVDKKVEPKSCDKTHTCPPCPAPPVAGPSVFLFPPKPKDTLMISRTPEVTCVVVDVKHEDPEVKFNWYVDGVEVHNAKTKPREEEYNSTYRVVSVLTVLHQDWLNGKEYKCKVSNKALPAPIEKTISKAKGQPREPQVYTLPPSREEMTKNQVSLTCDVSGFYPSDIAVEWESDGQPENNYKTTPPVLDSDGSFFLYSKLTVDKSRWEQGDVFSCSVMHEALHNHYTQKSLSLSPGK
HC 2 (scFv-Fc): not shown
light: QIVLTQSPSSLSASVGDRVTITCRASWSVSYIHWFQQKPGKSPKPLIYATSNLASGVPVRFSGSGSGTDYTLTISSLQPEDFATYYCQQWTHNPPTFGGGTKVEIKRTVAAPSVFIFPPSDEQLKSGTASVVCLLNNFYPREAKVQWKVDNALQSGNSQESVTEQDSKDSTYSLSSTLTLSKADYEKHKVYACEVTHQGLSSPVTKSFNRGEC
notes: anti-CD3 scFv H1.30_L1.47; also called Anti-CD20 (C2B8_H1.202_L1.113) x Anti-CD3 (H1.30_L1.47) Fab-scFv-Fc
B12: XENP14389 (bispecific antibody)
HC 1 (Fab-Fc): B11 HC 1 (Fab-Fc)
HC 2 (scFv-Fc): not shown
light: B11 light
notes: anti-CD3 scFv H1.32_L1.47; also called Anti-CD20 (C2B8_H1.202_L1.113) x Anti-CD3 (H1.32_L1.47) Fab-scFv-Fc
B13: XENP14388 (bispecific antibody)
HC 1 (Fab-Fc): B11 HC 1 (Fab-Fc)
HC 2 (scFv-Fc): not shown
light: B11 light
notes: anti-CD3 scFv H1.31_L1.47; also called Anti-CD20 (C2B8_H1.202_L1.113) x Anti-CD3 (H1.31_L1.47) Fab-scFv-Fc; CD3low
B14: XENP14392 (bispecific antibody)
HC 1 (Fab-Fc): B11 HC 1 (Fab-Fc)
HC 2 (scFv-Fc): not shown
light: B11 light
notes: anti-CD3 scFv H1.89_L1.47; also called Anti-CD20 (C2B8_H1.202_L1.113) x Anti-CD3 (H1.89_L1.47) Fab-scFv-Fc
B15: XENP14393 (bispecific antibody)
HC 1 (Fab-Fc): B11 HC 1 (Fab-Fc)
HC 2 (scFv-Fc): not shown
light: B11 light
notes: anti-CD3 scFv H1.90_L1.47; also called Anti-CD20 (C2B8_H1.202_L1.113) x Anti-CD3 (H1.90_L1.47) Fab-scFv-Fc
B16: XENP14390 (bispecific antibody)
HC 1 (Fab-Fc): B11 HC 1 (Fab-Fc)
HC 2 (scFv-Fc): not shown
light: B11 light
notes: anti-CD3 scFv H1.33_L1.47; also called Anti-CD20 (C2B8_H1.202_L1.113) x Anti-CD3 (H1.33_L1.47) Fab-scFv-Fc; CD3med
B17: XENP16376 (bispecific antibody)
HC 1 (Fab-Fc): B11 HC 1 (Fab-Fc)
HC 2 (scFv-Fc): not shown
light: B11 light
notes: anti-CD3 scFv H1.108_L1.47; also called Anti-CD20 (C2B8_H1.202_L1.113) x Anti-CD3 (H1.108_L1.47) Fab-scFv-Fc
B18: XENP16375 (bispecific antibody)
HC 1 (Fab-Fc): B11 HC 1 (Fab-Fc)
HC 2 (scFv-Fc): not shown
light: B11 light
notes: anti-CD3 scFv H1.107_L1.47; also called Anti-CD20 (C2B8_H1.202_L1.113) x Anti-CD3 (H1.107_L1.47) Fab-scFv-Fc
B19: XENP16373 (bispecific antibody)
HC 1 (Fab-Fc): B11 HC 1 (Fab-Fc)
HC 2 (scFv-Fc): EVQLVESGGGLVQPGGSLRLSCAASGFTFSTYAMNWVRQAPGKGLEWVGRIRSKYNNYATYYADSVKGRFTISRDDSKNTLYLQMNSLRAEDTAVYYCVRHGNFGDQYVSWFDYWGQGTLVTVSSGKPGSGKPGSGKPGSGKPGSQAVVTQEPSLTVSPGGTVTLTCGSSTGAVTTSNYANWVQQKPGKSPRGLIGGTNKRAPGVPARFSGSLLGGKAALTISGAQPEDEADYYCALWYSNHWVFGGGTKLTVLEPKSSDKTHTCPPCPAPPVAGPSVFLFPPKPKDTLMISRTPEVTCVVVDVKHEDPEVKFNWYVDGVEVHNAKTKPREEQYNSTYRVVSVLTVLHQDWLNGKEYKCKVSNKALPAPIEKTISKAKGQPREPQVYTLPPSREQMTKNQVKLTCLVKGFYPSDIAVEWESNGQPENNYKTTPPVLDSDGSFFLYSKLTVDKSRWQQGNVFSCSVMHEALHNHYTQKSLSLSPGK
light: B11 light
notes: anti-CD3 scFv H1.105_L1.47; also called Anti-CD20 (C2B8_H1.202_L1.113) x Anti-CD3 (H1.105_L1.47) Fab-scFv-Fc
B20: XENP16374 (bispecific antibody)
HC 1 (Fab-Fc): B11 HC 1 (Fab-Fc)
HC 2 (scFv-Fc): not shown
light: B11 light
notes: anti-CD3 scFv H1.106_L1.47; also called Anti-CD20 (C2B8_H1.202_L1.113) x Anti-CD3 (H1.106_L1.47) Fab-scFv-Fc

Numbering of substitutions follows the chain as printed.

The term Kd denotes the free concentration of one partner at which half of the binding sites on the other are occupied at equilibrium, for simple one-to-one binding. By koff is commonly meant a measure of how fast the partners let go of each other. Broadly, the kon is the rate constant with which the complex forms.

T3 sequence (Q95LI5 22-117, form in doubt, chain 1 of 2): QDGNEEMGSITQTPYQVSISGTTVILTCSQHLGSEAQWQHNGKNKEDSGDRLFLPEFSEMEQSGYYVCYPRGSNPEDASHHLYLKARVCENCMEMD
T3 sequence (Q95LI8 22-105, form in doubt, chain 2 of 2): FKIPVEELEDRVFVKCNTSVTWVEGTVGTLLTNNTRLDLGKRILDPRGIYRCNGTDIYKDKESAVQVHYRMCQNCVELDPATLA

In one assay the target is T1, human CD123. In words: Biacore, Fab-His on CD123 (Example 3; the sheet names no assay). (SPR reads the build-up and loss of mass on a sensor chip optically.)
For the molecule B1, the Ka was found to be 1.35e+10 M⁻¹; the affinity, expressed as Kd, was 0.0742 nM; the off-rate (koff) came out at 5.53e-05 s⁻¹; the kon came out at 745000 M⁻¹ s⁻¹.

Molecule B2 showed a Ka of 6.79e+09 M⁻¹, a dissociation constant (Kd) of 0.147 nM, a dissociation rate constant (koff) of 8.84e-05 s⁻¹ and a kon of 600000 M⁻¹ s⁻¹.

B3 came in with a Ka of 1.6e+10 M⁻¹, a dissociation constant Kd of 0.0624 nM, a koff of 3.82e-05 s⁻¹ and a kon of 612000 M⁻¹ s⁻¹.

The target in another assay is T1, human CD123. Put plainly: off-rate screen of Fab-His on a Biacore CD123 chip (Example 3), relative to 7G3 H1L1 Fab.
B4: the “Fold improvement in off-rate vs. H1L1” value was 4.61 fold.

As to B5, the “Fold improvement in off-rate vs. H1L1” value amounted to 1.29 fold.

Consider B6, for which the “Fold improvement in off-rate vs. H1L1” value is 1.89 fold.

On to B7, for which the “Fold improvement in off-rate vs. H1L1” value was found to be 1.04 fold.

As for B8, the “Fold improvement in off-rate vs. H1L1” value is 0.84 fold.

B9: the “Fold improvement in off-rate vs. H1L1” value came out at 0.65 fold.

With B10, the “Fold improvement in off-rate vs. H1L1” value came out at 0.96 fold.

For a further assay, the target named is T2, human CD3 (human, UniProt P07766 23-126; P04234 22-105).
T2 construct: The legend says only human CD3
T2 sequence (P07766 23-126, chain 1 of 2): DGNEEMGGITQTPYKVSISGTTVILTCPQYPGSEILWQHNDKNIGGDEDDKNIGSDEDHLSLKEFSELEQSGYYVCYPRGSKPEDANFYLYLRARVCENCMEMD
T2 sequence (P04234 22-105, chain 2 of 2): as the sequence (Q95LI8 22-105, form in doubt, chain 2 of 2) above, with V5I, K15N, V20I, T32S, N33D, N34I, A64T, N74S, L83V counted along it
Put plainly: SPR; human CD3-Fc (printed 'CD388-Fc', Sino Biological) covalently bound to the chip; test article passed over at 3.125, 12.5, 50 and 200 nM.
Turning to B11, the affinity, expressed as Kd, was 4.9 nM.

As for B12, the Kd came to 44 nM.

As for B13, the Kd is approximately 2000 nM.

In turn, B14 came in with an equilibrium dissociation constant (Kd) of 120 nM.

B15 had a Kd of 120 nM.

With B16, the dissociation constant Kd amounted to 110 nM.

The next assay has as its target T2, human CD3. Put plainly: SPR; human CD3-Fc (printed 'CD388-Fc', Sino Biological) covalently bound to the chip; test article passed over at 31.25, 125, 500 and 2000 nM.
In the case of B13, the Kd was 1200 nM.

In the case of B17, the Kd was 1100 nM.

B16: the equilibrium dissociation constant (Kd) was found to be 220 nM.

With B18, the Kd is 1000 nM.

For the molecule B19, binding was characterised by a dissociation constant (Kd) of 4000 nM.

Turning to B20, the Kd worked out at 1300 nM.

A further assay addresses T3, cyno CD3 (cynomolgus monkey, UniProt Q95LI5 22-117; Q95LI8 22-105).
T3 construct: The legend says only cyno CD3; also called cynomolgus monkey CD3
In words: SPR; cynomolgus monkey CD3-Fc (printed 'CD388-Fc', Sino Biological) covalently bound to the chip; test article passed over at 3.125, 12.5, 50 and 200 nM.
The molecule B11 came in with a Kd of 5.6 nM.

For the molecule B12, the affinity, expressed as Kd, was 45 nM.

In the case of B13, the equilibrium dissociation constant (Kd) is approximately 1000 nM.

Take B14: binding was characterised by a dissociation constant (Kd) of 110 nM.

In turn, B15 yielded a Kd of 120 nM.

B16 returned a Kd of 100 nM.

The target of another assay is T3, cyno CD3. In words: SPR; cynomolgus monkey CD3-Fc (printed 'CD388-Fc', Sino Biological) covalently bound to the chip; test article passed over at 31.25, 125, 500 and 2000 nM.
Take B13: binding was put at a Kd of 1200 nM.

Regarding B17, the Kd was found to be 860 nM.

B16 yielded a Kd of 160 nM.

For B18, the dissociation constant Kd was found to be 880 nM.

For the molecule B19, the affinity, expressed as Kd, was 420 nM.

B20: the affinity, expressed as Kd, was 1100 nM.
